Source: patent US20250283063, “NOVEL CRISPR-CAS12I SYSTEMS AND USES THEREOF” (HUIDAGENE THERAPEUTICS (SINGAPORE) PTE. LTD., published 2025)

Key:
[1] = target: T1, xCas12i v6.1 (N243R,E336R,V880R); experiment: cell_activity; PAM TTTG; OT-1; settings: tags: NLS
T1 chain: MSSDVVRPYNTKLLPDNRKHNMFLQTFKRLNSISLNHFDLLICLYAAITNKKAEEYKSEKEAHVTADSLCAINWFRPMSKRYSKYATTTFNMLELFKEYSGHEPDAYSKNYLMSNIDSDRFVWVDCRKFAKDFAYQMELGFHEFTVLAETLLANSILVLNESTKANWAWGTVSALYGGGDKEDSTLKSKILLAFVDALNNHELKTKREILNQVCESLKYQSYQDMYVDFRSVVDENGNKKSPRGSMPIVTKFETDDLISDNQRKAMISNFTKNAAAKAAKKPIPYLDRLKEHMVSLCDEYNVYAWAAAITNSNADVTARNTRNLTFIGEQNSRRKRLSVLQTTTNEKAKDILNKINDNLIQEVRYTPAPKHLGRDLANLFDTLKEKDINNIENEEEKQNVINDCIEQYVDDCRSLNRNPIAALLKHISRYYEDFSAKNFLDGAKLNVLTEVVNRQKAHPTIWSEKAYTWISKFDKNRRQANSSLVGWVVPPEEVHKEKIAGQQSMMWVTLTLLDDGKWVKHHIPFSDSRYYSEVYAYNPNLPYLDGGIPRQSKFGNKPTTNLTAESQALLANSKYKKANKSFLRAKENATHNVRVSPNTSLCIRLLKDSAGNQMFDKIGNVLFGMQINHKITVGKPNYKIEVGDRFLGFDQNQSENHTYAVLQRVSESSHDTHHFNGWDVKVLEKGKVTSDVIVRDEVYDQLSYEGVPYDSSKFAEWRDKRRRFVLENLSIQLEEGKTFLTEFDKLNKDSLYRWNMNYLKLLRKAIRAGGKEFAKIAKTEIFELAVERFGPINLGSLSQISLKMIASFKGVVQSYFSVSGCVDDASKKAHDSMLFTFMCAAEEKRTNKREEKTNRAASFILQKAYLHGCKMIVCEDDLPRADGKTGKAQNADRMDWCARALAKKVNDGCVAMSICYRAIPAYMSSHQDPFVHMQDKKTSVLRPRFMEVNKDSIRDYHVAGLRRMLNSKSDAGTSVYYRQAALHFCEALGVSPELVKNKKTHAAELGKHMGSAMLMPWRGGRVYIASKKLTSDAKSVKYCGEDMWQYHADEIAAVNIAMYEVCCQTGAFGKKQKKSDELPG
Description: (§1) HEK293T cells were cultured in 24-well tissue culture plates according to standard methods for 12 hours, before the reporter and expression plasmids were co-transfected into the cells using standard polyethyleneimine (PEI) transfection. The transfected cells were then cultured at 37° C. under 5% CO₂ for 48 hours. Then the cultured cells were analyzed by flow cytometry for BFP, EGFP, and mCherry fluorescent signals. A “blank” control group was also set up, where only the reporter plasmid was transfected, and no expression plasmid was introduced.
(§2) A dual plasmid fluorescent reporter system for evaluation of off-target dsDNA cleavage activity (off-target reporter system; referring to “Off-Target Reporter” in FIG. 1B) was established, which was similar to the dual plasmid fluorescent reporter system in Example 6 for evaluation of (on-target) dsDNA cleavage activity, except that the insertion sequence of the EGxxxxFP coding sequence contains an TTR off-target protospacer sequence (one of SEQ ID NOs: 127-129) containing one or more mismatches (bold, underlined) with a TTR-targeting spacer sequence (SEQ ID NO: 130) in the gRNA, rather than containing a TTR on-target protospacer sequence (SEQ ID NO: 130; which is the same as SEQ ID NO: 107 in Example 5); DR-T1 sequence (SEQ ID NO: 451) was used. To save drafting, the on-target protospacer sequence/spacer sequence in Table 7 refer to both the protospacer sequence (a DNA sequence) and the corresponding spacer sequence (an RNA sequence) with any “T” in the sequence when referring to a protospacer sequences standing for “T” and when referring to a such spacer sequence standing for “U”, although the assigned SEQ ID NO: 130 in the sequence listing is annotated as DNA.

[2] = target: T2, Cas12Max (xCas12i-N243R, v1.1) (N243R); experiment: cell_activity; PAM TTTG; OT-1; settings: tags: NLS
T2 chain: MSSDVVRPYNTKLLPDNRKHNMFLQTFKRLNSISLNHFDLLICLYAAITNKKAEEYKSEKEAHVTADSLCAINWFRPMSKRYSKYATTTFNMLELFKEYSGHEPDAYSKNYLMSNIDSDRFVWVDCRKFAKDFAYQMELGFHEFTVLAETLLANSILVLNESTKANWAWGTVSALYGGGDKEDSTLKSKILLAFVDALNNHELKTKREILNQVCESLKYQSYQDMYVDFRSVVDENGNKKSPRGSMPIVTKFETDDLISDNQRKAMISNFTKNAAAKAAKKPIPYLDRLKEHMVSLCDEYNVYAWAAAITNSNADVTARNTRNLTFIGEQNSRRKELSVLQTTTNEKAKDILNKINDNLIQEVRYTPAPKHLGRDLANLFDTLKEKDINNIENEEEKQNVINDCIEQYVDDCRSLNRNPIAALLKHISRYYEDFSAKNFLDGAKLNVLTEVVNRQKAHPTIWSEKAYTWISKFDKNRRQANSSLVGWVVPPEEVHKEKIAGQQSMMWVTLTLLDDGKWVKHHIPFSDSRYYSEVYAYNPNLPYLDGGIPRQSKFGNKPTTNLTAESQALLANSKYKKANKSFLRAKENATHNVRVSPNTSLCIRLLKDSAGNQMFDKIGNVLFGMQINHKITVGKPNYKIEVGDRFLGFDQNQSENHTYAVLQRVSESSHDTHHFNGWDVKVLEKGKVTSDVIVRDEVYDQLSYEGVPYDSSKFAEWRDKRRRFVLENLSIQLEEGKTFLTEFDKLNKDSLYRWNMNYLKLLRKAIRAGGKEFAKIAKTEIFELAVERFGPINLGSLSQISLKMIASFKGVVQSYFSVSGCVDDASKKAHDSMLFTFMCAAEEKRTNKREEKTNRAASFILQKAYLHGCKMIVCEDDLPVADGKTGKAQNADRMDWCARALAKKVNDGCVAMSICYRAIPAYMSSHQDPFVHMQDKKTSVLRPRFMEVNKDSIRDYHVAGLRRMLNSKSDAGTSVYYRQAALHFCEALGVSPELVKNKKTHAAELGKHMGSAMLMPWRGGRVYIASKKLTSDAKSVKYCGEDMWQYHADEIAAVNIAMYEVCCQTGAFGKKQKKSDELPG
Description: as §1, §2

B1: TTR.2 crRNA ; TTR OT.1 (ssRNA ; dsDNA)
RNA: AUGACUCAGAAAUGUGUCCCCAGUUGACACUAGAAGGGAUAUACAAAGUGGA
DNA 1: TTTGTAGAAGGGATATAGAAAGTATC
DNA 2: GATACTTTCTATATCCCTTCTACAAA
B1 was tested, and the activity [1] was 2.04% and the activity [2] was 60.2%.
